Reference: US20230041822A1 (Molecular Partners, published 2023)
Positions count from the first letter of the chain named.

What was measured:
[1] = biological target: T1, HBVc18 peptide-MHC complex (HBVc18pMHC), biotinylated recombinant tripartite complex of HLA-A*0201, human … (human; hepatitis B virus); test: SPR (ProteOn), biotinylated HBVc18pMHC on NLC chip, ankyrin repeat protein injected, PBST
T1 construct: also called HLA-A*0201: HBc18; target peptide-MHC complex
Method: (§1) Briefly, biotinylated HBVc18pMHC were diluted in PBST (PBS, pH 7.4 containing 0.005% Tween 20®) and coated on a NLC chip (BioRad) to a level of around 1000 resonance units (RU). […] No target regeneration was performed. The signals (i.e. resonance unit (RU) values) of the interspots were subtracted from the RU traces obtained after injection of ankyrin repeat protein. Based on the SPR traces obtained from the on-rate and off-rate measurements, the on- and off-rates of the corresponding ankyrin repeat proteins towards the pMHC complexes were determined.
Dissociation constants (KD) were calculated from the estimated on- and off-rates using standard procedures known to the person skilled in the art.

[2] = biological target: T1, HBVc18 peptide-MHC complex …; test: SPR (ProteOn), biotinylated HBVc18pMHC on the NLC chip, DARPin protein injected, multi-trace fit
Method: (§2) The binding affinities of the purified ankyrin repeat proteins on the HBVc18pMHC target were analyzed using a ProteOn Surface Plasmon Resonance (SPR) instrument (BioRad) and the measurement was performed according standard procedures known to the person skilled in the art.
as §1

[3] = biological target: T1, HBVc18 peptide-MHC complex …; test: as above; remark: listed apart in the source
Method: as §2, §1

[4] = biological target: T1, HBVc18 peptide-MHC complex …; test: SPR (ProteOn), biotinylated HBVc18pMHC on the NLC chip, DARPin protein injected, multi-trace fit [continued) G]
Method: as §2, §1

[5] = biological target: T1, HBVc18 peptide-MHC complex …; test: SPR (ProteOn), biotinylated HBVc18pMHC on the NLC chip, DARPin protein injected, multi-trace fit; remark: listed apart in the source
Method: as §2, §1

[6] = biological target: T1, HBVc18 peptide-MHC complex …; test: SPR (ProteOn), biotinylated HBVc18pMHC on the NLC chip, DARPin protein injected, multi-trace fit [continued) I]
Method: as §2, §1

[7] = biological target: T1, HBVc18 peptide-MHC complex …; test: SPR (ProteOn), biotinylated HBVc18pMHC on the NLC chip, DARPin protein injected, multi-trace fit [continued) D]
Method: as §2, §1

[8] = biological target: T1, HBVc18 peptide-MHC complex …; test: SPR (ProteOn), biotinylated HBVc18pMHC on the NLC chip, DARPin protein injected, multi-trace fit [continued) H]
Method: as §2, §1

[9] = biological target: T1, HBVc18 peptide-MHC complex …; test: SPR (ProteOn), biotinylated HBVc18pMHC on the NLC chip, DARPin protein injected, multi-trace fit [continued) F]
Method: as §2, §1

[10] = biological target: T1, HBVc18 peptide-MHC complex …; test: SPR (ProteOn), biotinylated HBVc18pMHC on the NLC chip, DARPin protein injected, multi-trace fit [continued) E]
Method: as §2, §1

[11] = biological target: T1, HBVc18 peptide-MHC complex …; test: SPR (ProteOn), biotinylated HBVc18pMHC on the NLC chip, DARPin protein injected, multi-trace fit [continued) J]
Method: as §2, §1

B1: TCE DARPin® protein #17 (designed binder, not shown: small tags and cut ends)
chain: GSDLGQKLLLAAAIGQDDEVRILLAAGADVNAKDESGHTPLHYAAHVGHLEIVEVLLKAGDVNAKDHRGFTPLHVAAQIGHLEIVEVLLKAGADVNAQDNWGITPADLAAWWGHEDIAEVLQKAA
For B1, the Kd [1] was 0.369 nM, the koff [2] was 6.24e-06 s⁻¹ and the kon [2] was 16900 M⁻¹ s⁻¹.

B2: TCE DARPin® protein #18 (designed binder, not shown: small tags and cut ends)
chain: GSDLGYKLLTAAIVGQDDEVRILLAAGADVNAKDQSGLTPLHLAAAYGHLEIVEVLLKAGADVNAKDKHGRTPLHLAALEGHLEIVEVLLKAGADVNAQDQFGITPADLAAAVGHEDIAEVLQKAA
In the case of B2, the Kd [1] is reported as 7.15 nM, the koff [3] is reported as 0.00218 s⁻¹ and the kon [3] is reported as 305000 M⁻¹ s⁻¹.

B3: TCE DARPin® protein #23 (designed binder, not shown: small tags and cut ends)
chain: B2 chain with Y6Q
With B3 the Kd [1] was 7.1 nM, the koff [4] was 0.00274 s⁻¹ and the kon [4] was 387000 M⁻¹ s⁻¹.

B4: TCE DARPin® protein #16 (designed binder, not shown: small tags and cut ends)
chain: GSDLGHKLLFAASAGQDDEVRILLAAGADVNAKDESGQTPLHYAAFVGHLEIVEVLLKAGADVNAKDQWGHTPLHVAATFGHLEIVEVLLKAGADVNAQDTWGTTPADLAATFGHEDIAEVLQKAA
Binder B4 has a Kd [1] of 4.65 nM, a koff [5] of 0.000307 s⁻¹ and a kon [5] of 66100 M⁻¹ s⁻¹.

B5: TCE DARPin® protein #25 (designed binder, not shown: small tags and cut ends)
chain: B4 chain with H6S, F10Y, S13I, A14S, E120V
With B5 the Kd [1] was 1.03 nM, the koff [6] was 3.17e-05 s⁻¹ and the kon [6] was 30800 M⁻¹ s⁻¹.

B6: TCE DARPin® protein #20 (designed binder, not shown: small tags and cut ends)
chain: B4 chain with H6F, F10E, S13L, A14E
For B6, the Kd [1] was 0.736 nM, the koff [7] was 3.26e-05 s⁻¹ and the kon [7] was 44300 M⁻¹ s⁻¹.

B7: TCE DARPin® protein #24 (designed binder, not shown: small tags and cut ends)
chain: B4 chain with H6W, F10H, S13T, A14T
Binder B7 has a Kd [1] of 4.72 nM, a koff [8] of 0.000288 s⁻¹ and a kon [8] of 61100 M⁻¹ s⁻¹.

B8: TCE DARPin® protein #22 (designed binder, not shown: small tags and cut ends)
chain: GSDLGKKLLSAAQSGQDDEVRILLGAGADVNAKDKWGHTPLHLAAVKGHLEIAEVLLKAGADVNAKDEWGSTPLHLAASQGHLEIVEVLLKAGADVNAKDKKGATPLHLAALVGHLEIVEVLLKAVADVNAQDKSGKTPADLAARAGHQDIAEVLQKAA
For B8, the Kd [1] was 13.8 nM, the koff [9] was 0.0115 s⁻¹ and the kon [9] was 833000 M⁻¹ s⁻¹.

B9: TCE DARPin® protein #21 (designed binder, not shown: small tags and cut ends)
chain: GSDLGIKLLFAANFGQDDEVRILLAAGADVNAKDQSGRTPLHLAALWGHLEIVEVLLKAGADVNAKDVFGLTPLHIAATFGHLEIVEVLLKAGVDVNAQDYTGHTPADLAALIGHEDIAEVLQKAA
B9 gave a Kd [1] of 9.23 nM, a koff [10] of 0.00106 s⁻¹ and a kon [10] of 115000 M⁻¹ s⁻¹.

B10: TCE DARPin® protein #26 (designed binder, not shown: small tags and cut ends)
chain: GSDLGKKLLQAARAGQLDEVHELLKAGADVNAKDQHGKTPMHLAAQIGHLEIVEVLLKAGADVNAKDHIGWTPLHLAASVGHLEIVEVLLKAGADVNAKDQEGWTPLHVAAQLGHLEIVEVLLKAGADVNAQDKSGKTPADLAARAGHQDSAEVLQKAA
B10 showed a Kd [1] of 9.33 nM, a koff [11] of 0.000812 s⁻¹ and a kon [11] of 87000 M⁻¹ s⁻¹.
